Laboratory results published in PMC9482650, “Quantitative fragmentomics allow affinity mapping of interactomes” (Nature Communications, 2022).

T1: FRMPD1, Q5SYB0
T1 sequence (Q5SYB0 52-145, limits assumed, looked up): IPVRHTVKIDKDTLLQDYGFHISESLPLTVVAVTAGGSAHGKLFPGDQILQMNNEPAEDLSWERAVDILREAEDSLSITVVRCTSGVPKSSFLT

T2: GRIP1_3, Q9Y3R0
T2 sequence (Q9Y3R0 247-346, limits assumed, looked up): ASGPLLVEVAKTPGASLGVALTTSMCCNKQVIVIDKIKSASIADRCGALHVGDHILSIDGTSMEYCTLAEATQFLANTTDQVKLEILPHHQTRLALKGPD

T3: TJP3_3, O95049
T3 sequence (O95049 375-456, limits assumed, looked up): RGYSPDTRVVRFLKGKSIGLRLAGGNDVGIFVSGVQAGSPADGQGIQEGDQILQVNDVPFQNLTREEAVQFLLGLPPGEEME

T4: APBA2_1, Q99767
T4 sequence (Q99767 563-664, limits assumed, looked up): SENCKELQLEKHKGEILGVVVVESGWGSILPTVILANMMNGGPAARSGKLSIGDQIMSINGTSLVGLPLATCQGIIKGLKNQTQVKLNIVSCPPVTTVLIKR

T5: LNX2_3, Q8N448
T5 sequence (Q8N448 463-564, limits assumed, looked up): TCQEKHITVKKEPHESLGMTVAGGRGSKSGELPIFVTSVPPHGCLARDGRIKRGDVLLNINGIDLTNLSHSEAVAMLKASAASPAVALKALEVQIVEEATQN

T6: NHERF3_4, Q5T2W1
T6 sequence (Q5T2W1 373-468, limits assumed, looked up): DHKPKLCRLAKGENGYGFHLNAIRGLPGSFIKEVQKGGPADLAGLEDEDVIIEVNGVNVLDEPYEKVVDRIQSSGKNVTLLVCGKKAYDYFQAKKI

T7: PDZD7_3, Q9H5P4
T7 sequence (Q9H5P4 857-944, limits assumed, looked up): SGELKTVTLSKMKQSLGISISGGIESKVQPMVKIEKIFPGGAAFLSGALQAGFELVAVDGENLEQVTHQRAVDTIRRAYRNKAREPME

T8: LRRC7, Q96NW7
T8 sequence (Q96NW7 1440-1537, limits assumed, looked up): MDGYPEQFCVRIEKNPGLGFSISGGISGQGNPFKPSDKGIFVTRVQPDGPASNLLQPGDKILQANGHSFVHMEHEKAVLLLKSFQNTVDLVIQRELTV

T9: NHERF3_3, Q5T2W1
T9 sequence (Q5T2W1 238-333, limits assumed, looked up): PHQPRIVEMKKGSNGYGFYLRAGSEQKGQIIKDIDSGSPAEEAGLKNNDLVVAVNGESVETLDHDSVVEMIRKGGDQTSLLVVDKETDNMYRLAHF

T10: APBA2_2, Q99767
T10 sequence (Q99767 654-744, limits assumed, looked up): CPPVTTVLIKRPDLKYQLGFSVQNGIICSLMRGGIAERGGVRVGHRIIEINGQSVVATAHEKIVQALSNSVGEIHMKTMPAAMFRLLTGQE

T11: HTRA3, P83110
T11 sequence (P83110 354-453, limits assumed, looked up): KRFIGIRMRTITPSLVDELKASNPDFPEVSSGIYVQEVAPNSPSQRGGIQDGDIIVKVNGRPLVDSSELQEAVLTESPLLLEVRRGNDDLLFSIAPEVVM

T12: PDZD2_2, O15018
T12 sequence (O15018 329-429, limits assumed, looked up): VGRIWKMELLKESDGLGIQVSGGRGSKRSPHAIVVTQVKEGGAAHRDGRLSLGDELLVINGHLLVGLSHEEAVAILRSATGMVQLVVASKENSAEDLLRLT

T13: ARHGAP21, Q5T5U3
T13 sequence (Q5T5U3 45-169, limits assumed, looked up): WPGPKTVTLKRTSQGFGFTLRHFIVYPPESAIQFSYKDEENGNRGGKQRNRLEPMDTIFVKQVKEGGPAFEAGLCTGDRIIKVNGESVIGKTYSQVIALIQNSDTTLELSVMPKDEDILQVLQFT


These binders were tested against TJP1_3, Q07157 (assay: holdup assay). Conditions: plain residues with an end cap or a label only (N-terminal biotin on a linker: ado-ado).
TJP1_3, Q07157, sequence (Q07157 416-512): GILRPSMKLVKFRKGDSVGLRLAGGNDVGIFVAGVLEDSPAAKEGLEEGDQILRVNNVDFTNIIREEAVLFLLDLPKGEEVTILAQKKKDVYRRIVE
Set-up: key: below the threshold = too weak to quantify, mostly under pKd 3.1 to 4

pKd	Binder
below the threshold	NSTHNLKDYV [CLDN20, P56880]
below the threshold	TKEIPNCTSV [SORCS3, Q9UPU3]

Each binder was assayed against T1, FRMPD1, Q5SYB0 (assay: holdup assay). Conditions: plain residues with an end cap or a label only (N-terminal biotin on a linker: ado-ado).
Set-up: key: below the threshold = too weak to quantify, mostly under pKd 3.1 to 4

pKd	Binder
below the threshold	NSTHNLKDYV [CLDN20, P56880]
below the threshold	TKEIPNCTSV [SORCS3, Q9UPU3]

The binders below were run against T2, GRIP1_3, Q9Y3R0 (assay: holdup assay). Conditions: plain residues with an end cap or a label only (N-terminal biotin on a linker: ado-ado).
Set-up: key: below the threshold = too weak to quantify, mostly under pKd 3.1 to 4

pKd	Binder
below the threshold	NSTHNLKDYV [CLDN20, P56880]
below the threshold	TKEIPNCTSV [SORCS3, Q9UPU3]

Each binder was assayed against T3, TJP3_3, O95049 (assay: holdup assay). Conditions: plain residues with an end cap or a label only (N-terminal biotin on a linker: ado-ado).
Set-up: key: below the threshold = too weak to quantify, mostly under pKd 3.1 to 4

pKd	Binder
below the threshold	NSTHNLKDYV [CLDN20, P56880]
3.54	TKEIPNCTSV [SORCS3, Q9UPU3]

Each binder was assayed against Inadl_3, Q8NI35 (assay: holdup assay). Conditions: plain residues with an end cap or a label only (N-terminal biotin on a linker: ado-ado).
Inadl_3, Q8NI35, sequence (Q8NI35 359-469): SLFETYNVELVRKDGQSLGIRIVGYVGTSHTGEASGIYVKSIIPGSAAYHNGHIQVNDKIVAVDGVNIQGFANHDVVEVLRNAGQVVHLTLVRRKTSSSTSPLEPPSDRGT
Set-up: key: below the threshold = too weak to quantify, mostly under pKd 3.1 to 4

pKd	Binder
below the threshold	NSTHNLKDYV [CLDN20, P56880]
below the threshold	TKEIPNCTSV [SORCS3, Q9UPU3]

These binders were tested against T4, APBA2_1, Q99767 (assay: holdup assay). Conditions: plain residues with an end cap or a label only (N-terminal biotin on a linker: ado-ado).
Set-up: key: below the threshold = too weak to quantify, mostly under pKd 3.1 to 4

pKd	Binder
below the threshold	NSTHNLKDYV [CLDN20, P56880]
below the threshold	TKEIPNCTSV [SORCS3, Q9UPU3]

These binders were tested against T5, LNX2_3, Q8N448 (assay: holdup assay). Conditions: plain residues with an end cap or a label only (N-terminal biotin on a linker: ado-ado).
Set-up: key: below the threshold = too weak to quantify, mostly under pKd 3.1 to 4

pKd	Binder
below the threshold	NSTHNLKDYV [CLDN20, P56880]
below the threshold	TKEIPNCTSV [SORCS3, Q9UPU3]

These binders were tested against T6, NHERF3_4, Q5T2W1 (assay: holdup assay). Conditions: plain residues with an end cap or a label only (N-terminal biotin on a linker: ado-ado).
Set-up: key: below the threshold = too weak to quantify, mostly under pKd 3.1 to 4

pKd	Binder
below the threshold	NSTHNLKDYV [CLDN20, P56880]
below the threshold	TKEIPNCTSV [SORCS3, Q9UPU3]

What follows are binders tested against T7, PDZD7_3, Q9H5P4 (assay: holdup assay). Conditions: plain residues with an end cap or a label only (N-terminal biotin on a linker: ado-ado).
Set-up: key: below the threshold = too weak to quantify, mostly under pKd 3.1 to 4

pKd	Binder
below the threshold	NSTHNLKDYV [CLDN20, P56880]
4.82	TKEIPNCTSV [SORCS3, Q9UPU3]

The binders below were run against Inadl_9, Q8NI35 (assay: holdup assay). Conditions: plain residues with an end cap or a label only (N-terminal biotin on a linker: ado-ado).
Inadl_9, Q8NI35, sequence (Q8NI35 1530-1615): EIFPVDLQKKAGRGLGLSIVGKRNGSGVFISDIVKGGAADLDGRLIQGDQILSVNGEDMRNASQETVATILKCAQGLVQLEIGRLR
Set-up: key: below the threshold = too weak to quantify, mostly under pKd 3.1 to 4

pKd	Binder
3.66	NSTHNLKDYV [CLDN20, P56880]
3.7	TKEIPNCTSV [SORCS3, Q9UPU3]

These binders were tested against T8, LRRC7, Q96NW7 (assay: holdup assay). Conditions: plain residues with an end cap or a label only (N-terminal biotin on a linker: ado-ado).
Set-up: key: below the threshold = too weak to quantify, mostly under pKd 3.1 to 4

pKd	Binder
below the threshold	NSTHNLKDYV [CLDN20, P56880]
below the threshold	TKEIPNCTSV [SORCS3, Q9UPU3]

What follows are binders tested against T9, NHERF3_3, Q5T2W1 (assay: holdup assay). Conditions: plain residues with an end cap or a label only (N-terminal biotin on a linker: ado-ado).
Set-up: key: below the threshold = too weak to quantify, mostly under pKd 3.1 to 4

pKd	Binder
below the threshold	NSTHNLKDYV [CLDN20, P56880]
below the threshold	TKEIPNCTSV [SORCS3, Q9UPU3]

These binders were tested against T10, APBA2_2, Q99767 (assay: holdup assay). Conditions: plain residues with an end cap or a label only (N-terminal biotin on a linker: ado-ado).
Set-up: key: below the threshold = too weak to quantify, mostly under pKd 3.1 to 4

pKd	Binder
below the threshold	NSTHNLKDYV [CLDN20, P56880]
below the threshold	TKEIPNCTSV [SORCS3, Q9UPU3]

These binders were tested against IL16_3, Q14005 (assay: holdup assay). Conditions: plain residues with an end cap or a label only (N-terminal biotin on a linker: ado-ado).
IL16_3, Q14005, sequence (Q14005 1107-1207): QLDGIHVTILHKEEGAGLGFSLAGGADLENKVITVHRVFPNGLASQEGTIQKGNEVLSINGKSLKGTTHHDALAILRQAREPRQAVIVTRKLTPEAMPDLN
Set-up: key: below the threshold = too weak to quantify, mostly under pKd 3.1 to 4

pKd	Binder
below the threshold	NSTHNLKDYV [CLDN20, P56880]
below the threshold	TKEIPNCTSV [SORCS3, Q9UPU3]

Each binder was assayed against DLG1_1, Q12959 (assay: holdup assay). Conditions: plain residues with an end cap or a label only (N-terminal biotin on a linker: ado-ado).
Set-up: key: below the threshold = too weak to quantify, mostly under pKd 3.1 to 4

pKd	Binder
below the threshold	NSTHNLKDYV [CLDN20, P56880]
4.22	TKEIPNCTSV [SORCS3, Q9UPU3]

What follows are binders tested against DLG2_3, Q15700 (assay: holdup assay). Conditions: plain residues with an end cap or a label only (N-terminal biotin on a linker: ado-ado).
Set-up: key: below the threshold = too weak to quantify, mostly under pKd 3.1 to 4

pKd	Binder
below the threshold	NSTHNLKDYV [CLDN20, P56880]
4.24	TKEIPNCTSV [SORCS3, Q9UPU3]

These binders were tested against Inadl_5, Q8NI35 (assay: holdup assay). Conditions: plain residues with an end cap or a label only (N-terminal biotin on a linker: ado-ado).
Inadl_5, Q8NI35, sequence (Q8NI35 673-780): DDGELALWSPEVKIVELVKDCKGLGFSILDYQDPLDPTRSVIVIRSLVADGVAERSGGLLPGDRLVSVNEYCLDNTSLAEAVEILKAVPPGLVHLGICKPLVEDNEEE
Set-up: key: below the threshold = too weak to quantify, mostly under pKd 3.1 to 4

pKd	Binder
below the threshold	NSTHNLKDYV [CLDN20, P56880]
below the threshold	TKEIPNCTSV [SORCS3, Q9UPU3]

What follows are binders tested against T11, HTRA3, P83110 (assay: holdup assay). Conditions: plain residues with an end cap or a label only (N-terminal biotin on a linker: ado-ado).
Set-up: key: below the threshold = too weak to quantify, mostly under pKd 3.1 to 4

pKd	Binder
3.97	NSTHNLKDYV [CLDN20, P56880]
3.52	TKEIPNCTSV [SORCS3, Q9UPU3]

Each binder was assayed against FRMPD3, Q5JV73 (assay: holdup assay). Conditions: plain residues with an end cap or a label only (N-terminal biotin on a linker: ado-ado).
FRMPD3, Q5JV73, sequence (Q5JV73 12-100): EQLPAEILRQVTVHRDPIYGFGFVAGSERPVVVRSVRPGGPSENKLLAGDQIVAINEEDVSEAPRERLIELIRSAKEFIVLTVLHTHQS
Set-up: key: below the threshold = too weak to quantify, mostly under pKd 3.1 to 4

pKd	Binder
below the threshold	NSTHNLKDYV [CLDN20, P56880]
below the threshold	TKEIPNCTSV [SORCS3, Q9UPU3]

What follows are binders tested against GOPC, Q9HD26 (assay: holdup assay). Conditions: plain residues with an end cap or a label only (N-terminal biotin on a linker: ado-ado).
Set-up: key: below the threshold = too weak to quantify, mostly under pKd 3.1 to 4

pKd	Binder
below the threshold	NSTHNLKDYV [CLDN20, P56880]
3.95	TKEIPNCTSV [SORCS3, Q9UPU3]

Each binder was assayed against LNX1_1, Q8TBB1 (assay: holdup assay). Conditions: plain residues with an end cap or a label only (N-terminal biotin on a linker: ado-ado).
LNX1_1, Q8TBB1, sequence (Q8TBB1 261-371): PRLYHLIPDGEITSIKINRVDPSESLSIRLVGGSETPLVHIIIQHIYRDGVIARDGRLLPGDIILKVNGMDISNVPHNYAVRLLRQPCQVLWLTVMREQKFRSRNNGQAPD
Set-up: key: below the threshold = too weak to quantify, mostly under pKd 3.1 to 4

pKd	Binder
below the threshold	NSTHNLKDYV [CLDN20, P56880]
3.75	TKEIPNCTSV [SORCS3, Q9UPU3]

These binders were tested against GRIP2_7, Q9C0E4 (assay: holdup assay). Conditions: plain residues with an end cap or a label only (N-terminal biotin on a linker: ado-ado).
GRIP2_7, Q9C0E4, sequence (Q9C0E4 934-1023): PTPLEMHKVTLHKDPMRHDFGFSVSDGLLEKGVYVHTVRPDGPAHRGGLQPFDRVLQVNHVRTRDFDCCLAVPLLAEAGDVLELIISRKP
Set-up: key: below the threshold = too weak to quantify, mostly under pKd 3.1 to 4

pKd	Binder
below the threshold	NSTHNLKDYV [CLDN20, P56880]
below the threshold	TKEIPNCTSV [SORCS3, Q9UPU3]

Each binder was assayed against MAST1, Q9Y2H9 (assay: holdup assay). Conditions: plain residues with an end cap or a label only (N-terminal biotin on a linker: ado-ado).
MAST1, Q9Y2H9, sequence (Q9Y2H9 962-1065): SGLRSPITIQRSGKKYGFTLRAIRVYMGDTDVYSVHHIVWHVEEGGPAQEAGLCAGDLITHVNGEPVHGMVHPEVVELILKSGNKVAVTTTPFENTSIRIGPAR
Set-up: key: below the threshold = too weak to quantify, mostly under pKd 3.1 to 4

pKd	Binder
3.65	NSTHNLKDYV [CLDN20, P56880]
4.99	TKEIPNCTSV [SORCS3, Q9UPU3]

The binders below were run against T12, PDZD2_2, O15018 (assay: holdup assay). Conditions: plain residues with an end cap or a label only (N-terminal biotin on a linker: ado-ado).
Set-up: key: below the threshold = too weak to quantify, mostly under pKd 3.1 to 4

pKd	Binder
4.56	NSTHNLKDYV [CLDN20, P56880]
4.72	TKEIPNCTSV [SORCS3, Q9UPU3]

What follows are binders tested against T13, ARHGAP21, Q5T5U3 (assay: holdup assay). Conditions: plain residues with an end cap or a label only (N-terminal biotin on a linker: ado-ado).
Set-up: key: below the threshold = too weak to quantify, mostly under pKd 3.1 to 4

pKd	Binder
3.89	NSTHNLKDYV [CLDN20, P56880]
3.86	TKEIPNCTSV [SORCS3, Q9UPU3]
